According to patent publication US20240254227A1 (Alector, published 2024):

T1: murine CD300D-Fc (mouse)
T1 construct: mouse IgG2a-Fc fusion (R&D Systems); the entry is the whole fusion chain; also called mCD300D; Mouse CD300D-Fc
T1 chain: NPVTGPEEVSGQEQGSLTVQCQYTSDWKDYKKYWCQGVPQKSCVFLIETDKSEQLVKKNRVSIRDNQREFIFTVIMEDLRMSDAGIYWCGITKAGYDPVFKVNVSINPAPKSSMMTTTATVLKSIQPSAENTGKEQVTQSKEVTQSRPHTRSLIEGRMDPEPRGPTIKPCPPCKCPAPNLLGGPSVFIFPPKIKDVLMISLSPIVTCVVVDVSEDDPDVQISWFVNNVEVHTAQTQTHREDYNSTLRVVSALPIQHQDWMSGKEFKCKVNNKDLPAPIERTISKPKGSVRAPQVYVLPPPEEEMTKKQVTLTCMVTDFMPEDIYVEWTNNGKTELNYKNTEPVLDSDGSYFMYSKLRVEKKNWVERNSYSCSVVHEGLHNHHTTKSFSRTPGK

T2: murine CD300F stably expressed on Jurkat cells (mouse, UniProt Q6SJQ7 20-337)
T2 construct: also called muCD300F
T2 sequence: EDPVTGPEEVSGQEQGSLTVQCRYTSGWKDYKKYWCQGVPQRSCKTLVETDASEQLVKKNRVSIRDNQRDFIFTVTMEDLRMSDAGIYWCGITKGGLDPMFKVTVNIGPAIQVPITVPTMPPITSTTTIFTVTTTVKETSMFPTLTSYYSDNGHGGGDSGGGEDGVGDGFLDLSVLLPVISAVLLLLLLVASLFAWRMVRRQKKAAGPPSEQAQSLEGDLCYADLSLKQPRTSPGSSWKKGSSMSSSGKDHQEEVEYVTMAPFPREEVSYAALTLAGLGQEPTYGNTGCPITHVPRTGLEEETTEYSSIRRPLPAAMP

T3: recombinant human CD300LB overexpressed on Jurkat cells (human, UniProt A8K4G0 18-201)
T3 construct: also called huCD300LB; huCD300LB-expressing Jurkat cells
T3 sequence: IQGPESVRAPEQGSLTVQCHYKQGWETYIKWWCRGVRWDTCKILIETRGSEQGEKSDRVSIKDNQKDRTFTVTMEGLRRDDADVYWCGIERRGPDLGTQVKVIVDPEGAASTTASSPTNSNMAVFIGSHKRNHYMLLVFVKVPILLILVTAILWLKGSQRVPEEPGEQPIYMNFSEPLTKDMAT


Key:
murine CD300D-Fc = target: T1, murine CD300D-Fc; assay: SPR (Carterra LSA), antibody immobilised, Fc fusion at 300 or 600 nM
[1] = target: T2, murine CD300F stably expressed on …; assay: flow cytometry, stable Jurkat cells, 10 ug/mL, isotype subtracted
Procedure: Purified anti-CD300LB antibodies of the present disclosure were analyzed for cross-reactivity to other murine CD300 family members stably expressed in Jurkat cells (generation of which is described above). Cells were counted and labeled with 200 nM CFSE, 500 nM VioBlue, or a combination of the two to discriminate between muCD300LB, Parental cells, CD300F, and the other CD300 family members. Cells were washed thoroughly with PBS containing 2% fetal bovine serum then resuspended at a total of 240,000 cells per well. Purified antibodies at 10 μg/mL were added and incubated for one hour before the cells were washed twice again and stained with an APC-labeled anti-mouse secondary. Cells were then analyzed using a BD FACSCanto II. Antibodies were analyzed for specific binding to muCD300LB by FlowJo software by gating on live cells, then the APC gMFI calculated for each labeled population by subtracting the gMFI of the isotype control. The gMFI results of the analysis are presented below in Table 4.

[2] = target: T3, recombinant human CD300LB overexpressed …; assay: flow cytometry on Jurkat cells overexpressing huCD300LB, apparent KD (Drake & Klakamp fit)
Procedure: (§1) Purified anti-CD300LB antibodies of the present disclosure were evaluated for their binding affinity to either Jurkat cells overexpressing recombinant huCD300LB or BaF/3 cells overexpressing recombinant muCD300LB. Binding of anti-CD300LB antibodies to the cells was determined as follows. Cells were harvested, washed, and labeled with propidium iodide for viability discrimination. After washing the cells with PBS, 1×10⁵ cells were aliquoted per well in 96-well U-bottom plates and incubated with 100 μL of purified anti-CD300LB antibody at various concentrations in FACS buffer (PBS+2% FBS). After this primary incubation, the supernatant was removed via centrifugation, the cells washed twice with 150 μL of ice-cold FACS buffer, and then incubated with the appropriate secondary antibody on ice for 30 minutes. Following the secondary antibody incubation, the cells were again washed twice with ice-cold FACS buffer and resuspended in a final volume of 200 L FACS buffer. Flow cytometry analysis was then performed using the FACSCanto system (BD Biosciences).
(§2) To determine affinity, antibodies at increasing concentrations were used to stain Jurkat cells overexpressing huCD300LB and geometric MFI values measured by the flow cytometer were analyzed on Prism (Graphpad) software.

[3] = target: T3, recombinant human CD300LB overexpressed …; assay: flow cytometry, geometric mean (APC-A), Jurkat cells overexpressing huCD300LB
Procedure: as §1, §2

Binder | SPR binding (control subtracted) (murine CD300D-Fc) | gMFI [1] [gMFI] | Kd [2] [nM] | EC50 (read off the curve) [3] [nM]
anti-CD300LB antibody CD-15 (antibody, V domains shown) VH: QIQLVQSGPELKKPGETVKISCQVSGYTFTDYSMHWLKQAPGKGLKWMAWINTETGESTYTDEFKGRFVFSLETSVRTAYLKINNLKNEDTATYFCGTYGSSYGMAYWGQGTSVTVSS VL: DIVLTQSPASLPVSLGQRATISCRASKSVSTSGSSYLHWYQQKPGQPPKLLIYLASKLESGVPARFRGSGSGTDFTLNIHPVEEEDAATYYCQHNREVPPTFGGGTKLEIK | 1.7 | 1.85 |  | 
anti-CD300LB antibody CD-18 (antibody, V domains shown) VH: DVQLQESGPDLVKPSQSLSLTCTVTGYSITSGYSWHWIRQFPDNKLEWMGYILSRGDTNFNPSLKSRISITRSTSNNQFFLHFNSVTTEDTATYYCARDFFDYWGQGTTLTVSS VL: DVLMTQTPLSLPVSLGDQASISCRSSQSIVHSNGNTYLEWYLQKPGQSPKLLIYKVSDRFSGVPDRFSGSGSGTDFTLKISRVEAEDLGVYFCFQGSHVPYTFGGGTKLEIK | 0.6 | 6.6 |  | 
anti-CD300LB antibody CD-06 (antibody, V domains shown) VH: QVQLVQSGAEVKKPGASVKVSCKASGYTFTTYAVHWVRQAPGQGLEWMGIVNPNSGGTNYAQKFQGRVTMTRDTSTSTVYMELSSLRSEDTAVYYCARDIVPMNNFYNYYYGMDVWGQGTTVTVSS VL: DIQMTQSPSSLSASVGDRVTITCRASQSISSYLNWYQQKPGKAPKLLIYATSTLQSGVPSRFSGSGSGTDFTLTISSLQPEDFATYYCQQSYRIPYTFGQGTKVEIK |  |  | 329 | 
anti-CD300LB antibody CD-05 (antibody, V domains shown) VH: QVQLVQSGAEVKKPGASVKVSCKASGYTFSRYYINWVRQAPGQGLEWMGWINPNSGGTNYAQKFQGRVTMTRDTSTSTVYMELSSLRSEDTAVYYCTTDQLRFGKTGPYYGMDVWGQGTTVTVSS VL: DIQMTQSPSSLSASVGDRVTITCRASQNIGTYLNWYQQKPGKAPKLLIYAASSLQSGVPSRFSGSGSGTDFTLTISSLQPEDFATYYCQQSYSDTLTFGGGTKVEIK |  |  | 15 | ~20
anti-CD300LB antibody CD-11 (antibody, V domains shown) VH: QIQLVQSGPEVKKPGETVKISCKASGYTLTDYSMHWVMQTPGTGLKWMAWMNTETGEPTYADDFKGRFAFSLETSAGTAYLQIDNLKNEDTATYFCATYGKSYGMKYWGQGTSVTVSS VL: DIVLTQSPPSLAVSLGQRATISCRATKSVSPYLHWYQQTPGQPPKLLIYLASNLDSGVPARFSGSGSGTDFTLNIHPVEEEDAATYYCQHNKELPPTFGGGTRLEIK | -0.1 | 2.35 |  | 

Continued, values first:

SPR binding (control subtracted) (murine CD300D-Fc) | gMFI [1] [gMFI] | Kd [2] [nM] | EC50 (read off the curve) [3] [nM] | Binder
0.6 | 2.1 |  |  | anti-CD300LB antibody CD-12 (antibody, V domains shown) VH: QIQLVQSGPELKKPGETVKISCKASGYTFTDYSMHWVRQAPGKGLKWMAWINTETGEATHADDFKGRFDFSLDTSASTAYLQIKNLKNEDTGIYFCVCYGSSYGMDYWGQGTSVTVSS VL: DIVLTQSPASLPVSLGQRATISCRASKSVRTSGASYMHWYQQKPGQPPKLLIYLASNLKSGVPTRFSGSGSGTDFTLNIHPVEEEDAATYYCQHNREVPPTFGGGTKLEIK
0.8 | 1.7 |  |  | anti-CD300LB antibody CD-17 (antibody, V domains shown) VH: QIQLVQSGPELKKPGETVKISCKASGYTLTDYSMHWVKQAPGKGLKWMGWINTETGEPRYGDDFKGRFAFSLETSASSAYLQINNLKNDDTATYFCATYGRSYGMDFWGQGTSVTVSS VL: DIVLTQSPASLAVSLGQRATISCRASKSVSPSGHSYMHWYQQKPGQPPKLLIYLASNLKSGVPARFSGSGSGTDFTLNIHPVEEGDAATYYCQHNRELPPTFGGGSKLEIK
 |  | 27 |  | anti-CD300LB antibody CD-01 (antibody, V domains shown) VH: RVQLQQSGAELVRPGASVTLSCKASGFTFTDFEMHWVKKTPVHGLEWIGAIDPESGNTAYNQKFRGKATLTADKSSSTAYMELRYLTSEDSAVYYCTPLISGADYWGQGTTLTVSS VL: DVVMTQSPLSLPVSLGDQASISCRSSQSLVHSDGNTYLYWYLQKPGQSPKLLIYKVSNRFSGVPDRFSGSGSGTDFTFKISRVGAEDLGVYFCSQSTHVPWTFGGGTKLEII
 |  | 64 |  | anti-CD300LB antibody CD-02 (antibody, V domains shown) VH: QVQLQQPGAELVRPGSSVKLSCQASGYTFTNYWMHWVRQRPIQGLEWIGNIDPSDSETHYNQKFKDRATLTVDKSSSTAYMQLSSLTSEDSAVYYCARSGVYDDEGGDYWGQGTTLTVSS VL: ENVLTQSPAIMSASPGEKVTMTCSASSSVSYIHWYQQKSSTSPKLWIYDTSKLASGVPGRFSGSGSGNSYSLTISSMETEDVATYYCFQGSGYPLTFGAGTKLELK
 |  | 66 |  | anti-CD300LB antibody CD-07 (antibody, V domains shown) VH: QVQLVQSGAEVKKPGASVKVSCKASGYTFTNYRMHWVRQAPGQGLEWMGWINPNSGGTIYAQKFQGRVTMTRDTSTSTVYMELSSLRSEDTAVYYCARDLDYWGQGTLVTVSS VL: DIQMTQSPSSLSASVGDRVTITCQASQDISNYLNWYQQKPGKAPKLLIYGASSLQSGVPSRFSGSGSGTDFTLTISSLQPEDFATYYCQQSYSTPWTFGPGTKVEIK
